To fix the notation:
T1: huCLL1-Q244-Avi-Tev-His (human, UniProt Q5QGZ9 65-265)
T1 construct: extracellular domain; also called CLL-1 K244Q
T1 sequence (looked up): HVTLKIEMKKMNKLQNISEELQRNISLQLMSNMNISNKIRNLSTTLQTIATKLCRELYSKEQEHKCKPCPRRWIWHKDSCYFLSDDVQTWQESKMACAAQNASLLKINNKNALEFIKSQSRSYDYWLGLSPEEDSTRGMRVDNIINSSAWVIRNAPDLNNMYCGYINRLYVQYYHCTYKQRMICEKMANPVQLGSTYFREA

T2: huCLL1-K244-Avi-Tev-His (human, UniProt Q5QGZ9 65-265)
T2 construct: extracellular domain
T2 sequence (looked up): T1 sequence (looked up) with Q180K

B1: Polypeptide No. 54 (scFv, V domains shown)
VH: QVQLVQSGAEVKKPGASVKVSCKASGGTFSSYAISWVRQAPGQGLEWMGWIDPKNGDTNYAQKFQGRVTMTRDTSTSTVYMELSSLRSEDTAVYYCATEGSHHPYYYYGMDVWGQGTTVTVSS
VL: DIQMTQSPSSLSASVGDRVTITCRASQGIGNWLAWYQQKPGKAPKLLIYEASTLQSGVPSRFSGSGSGTDFTLTISSLQPEDFATYYCHQYNAYPWTFGQGTKVEIKR
notes: scFv
B2: Polypeptide No. 70 (scFv, V domains shown)
VH: EVQLLESGGGLVQPGGSLRLSCAASGMSVTSNHMSWVRQAPGKGLEWVSSIYPDGKTYYADSVKGRFTISRDNSKNTLYLQMNSLRAEDTAVYYCARDEEDWFDPWGQGTLVTVSS
VL: B1 VL with R24Q, G28S, G30S, E50A, H89Q, Y91S, N92Y, A93S, Y94T
notes: scFv
B3: Polypeptide No. 66 (scFv, V domains shown)
VH: QVQLVQSGAEVKKPGASVKVSCKASGYTFNTYYMHWVRQAPGQGLEWMGWMHPNTGNTGYAQKFQGRVTMTRDTSTSTVYMELSSLRSEDTAVYYCARGTTSDAFDIWGQGTMVTVSS
VL: DIQMTQSPSSLSASVGDRVTITCRASQSIFSYLNWYQQKPGKAPKLLIYSASNLQSGVPSRFSGSGSGTDFTLTISSLQPEDFATYYCQQSYSTPITFGQGTKVEIKR
notes: scFv
B4: Polypeptide No. 60 (scFv, V domains shown)
VH: QVQLVQSGAEVKKPGSSVKVSCKASGGTFSSYAISWVRQAPGQGLEWMGGIIPMFGTANYAQKFQGRVTITADESTSTAYMELSSLRSEDTAVYYCARDLGYSNAGGTLHYWGQGTLVTVSS
VL: EIVMTQSPATLSVSPGERATLSCRASQSIGTYLAWYQQKPGQAPRLLIYDASSRATGIPARFSGSGSGTEFTLTISSLQSEDFAVYYCQQYKSYPLTFGGGTKVEIKR
notes: scFv
B5: Polypeptide No. 64 (scFv, V domains shown)
VH: QVQLVQSGAEVKKPGASVKVSCKASGYTFTDYYMHWVRQAPGQGLEWMGLIDPSGGSTNSLQKFQGRVTMTRDTSTSTVYMELSSLRSEDTAVYYCARDVGFGELSFDIWGQGTTVTVSS
VL: DIVMTQSPLSLPVTPGEPASISCRSSQSLLHSNGYNYLDWYLQKPGQSPQLLIYAASTLQSGVPDRFSGSGSGTDFTLKISRVEAEDVGVYYCMQGTHWPPTFGPGTKVDIKR
notes: scFv
B6: Polypeptide No. 56 (scFv, V domains shown)
VH: QVQLVQSGAEVKKPGASVKVSCKASGYTFTSYDINWVRQAPGQGLEWMGWMNPNSGNTGYAQKFQGRVTMTRDTSTSTVYMELSSLRSEDTAVYYCARVSATGTYGLDYWGQGTLVTVSS
VL: DIQMTQSPSSLSASVGDRVTITCRASHSISSWLAWYQQKPGKAPKLLIYDASNLETGVPSRFSGSGSGTDFTLTISSLQPEDFATYYCQQADSFPLTFGGGTKVEIKR
notes: scFv
B7: Polypeptide No. 62 (scFv, V domains shown)
VH: QVQLVQSGAEVKKPGASVKVSCKASGYTFTDHFVHWVRQAPGQGLEWMGWISAYNGNTNYAQKFQGRVTMTRDTSTSTVYMELSSLRSEDTAVYYCARAEYSYGFDYWGQGTLVTVSS
VL: B6 VL with H27Q, S28G, S30H, S31N, W32Y, A91T, D92S, L96Y, G100Q, V104L
notes: scFv
B8: Polypeptide No. 58 (scFv, V domains shown)
VH: QVQLVQSGAEVKKPGASVKVSCKASGYTFTDYYLHWVRQAPGQGLEWMGWMNPNSGNTGYAQKFQGRVTMTRDTSTSTVYMELSSLRSEDTAVYYCAADVITAYGMDVWGQGTMVTVSS
VL: B6 VL with H27Q, S28G, S31N, W32Y, A91S, D92Y, S93N, F94V, L96P, G100Q
notes: scFv
B9: Polypeptide No. 74 (scFv, V domains shown)
VH: QVQLVQSGAEVKKPGSSVKVSCKASGYTFTKYEINWVRQAPGQGLEWMGGIIPIFGTANYAQKFQGRVTITADESTSTAYMELSSLRSEDTAVYYCARGSGWYTPLFDYWGQGTLVTVSS
VL: B6 VL with H27Q, S28G, S31N, W32N, A34N, N53Y, A91S, D92Y, F94A, G100Q
notes: scFv
B10: Polypeptide No. 67 (scFv, V domains shown)
VH: QVQLVQSGAEVKKPGASVKVSCKASGDTFTRHYVHWVRQAPGQGLEWMGRVNPRDGRTNSAQKFQGRVTMTRDTSTSTVYMELSSLRSEDTAVYYCAKDMFPTVTGTYYYYGMDVWGQGTTVTVSS
VL: B6 VL with H27Q, S28G, W32Y, D92S, S93G, L96Y, G100Q, K103R, V104L
notes: scFv
B11: Polypeptide No. 55 (scFv, V domains shown)
VH: QVQLVQSGAEVKKPGASVKVSCKASGYTFTGYHMHWVRQAPGQGLEWMGWINPNTGGTNYAQKFQGRVTMTRDTSTSTVYMELSSLRSEDTAVYYCARPNTAMVPPYYYYYGMDVWGQGTLVTVSS
VL: DIQMTQSPSSLSASVGDRVTITCQASQDISNYLNWYQQKPGKAPKLLIYAASSLQSGVPSRFSGSGSGTDFTLTISSLQPEDFATYYCQQYNSYPLTFGQGTKLEIKR
notes: scFv
B12: Polypeptide No. 72 (scFv, V domains shown)
VH: QVQLVQSGAEVKKPGASVKVSCKASGGTFSNYAISWVRQAPGQGLEWMGWISAYNGNSDYAQNLQGRVTMTRDTSTSTVYMELSSLRSEDTAVYYCAIGDYFDYWGQGTLVTVSS
VL: B6 VL with R24Q, H27E, S28D, S30N, S31K, W32Y, A34N, D92N, G100Q
notes: scFv
B13: Polypeptide No. 57 (scFv, V domains shown)
VH: QVQLVQSGAEVKKPGASVKVSCKASGYTFNNYGITWVRQAPGQGLEWMGIINPITGVTTYAQNFQGRVTMTRDTSTSTVYMELSSLRSEDTAVYYCASGEQQLVLFDYWGQGTLVTVSS
VL: B11 VL with S30N, N31D, A50G, S53N, Q89L, Y91H
notes: scFv
B14: Polypeptide No. 65 (scFv, V domains shown)
VH: QVQLVQSGAEVKKPGASVKVSCKASGYTFTGYYMHWVRQAPGQGLEWMGWINPNSGGTNYAQKFQGRVTMTRDTSTSTVYMELSSLRSEDTAVYYCAREIGGYDNYYYYGMDVWGQGTTVTVSS
VL: B3 VL with F30G, S31T, S50A, N53S, S93T, T94D, I96W
notes: scFv
B15: Polypeptide No. 63 (scFv, V domains shown)
VH: QVQLVQSGAEVKKPGASVKVSCKASGYTFTGYYVHWVRQAPGQGLEWMGVINPSGGGSPSYAQKFQGRVTMTRDTSTSTVYMELSSLRSEDTAVYYCARDRSDVDYGMDVWGQGTTVTVSS
VL: B11 VL with A50D, S53N, Q89L, Y91H, Q100G, L104V
notes: scFv
B16: Polypeptide No. 71 (scFv, V domains shown)
VH: EVQLLESGGGLVQPGGSLRLSCAASGFTFSNHYMSWVRQAPGKGLEWVAVIWPDGSKEYYADSVKGRFTISRDNSKNTLYLQMNSLRAEDTAVYYCAREDYYGSGMDYWGQGTLVTVSS
VL: B11 VL with A50G, S53T, N92D, L96P, Q100G, L104V
notes: scFv
B17: Polypeptide No. 76 (scFv, V domains shown)
VH: QVQLVQSGAEVKKPGASVKVSCKASGYTFTTYYMHWVRQAPGQGLEWMGIINVSAGTTSYAQKFQGRVTMTRDTSTSTVYMELSSLRSEDTAVYYCAKEPYPHQSGWFFDYWGQGTLVTVSS
VL: B6 VL with R24Q, H27Q, S28D, S30N, S31N, W32Y, A34N, D92N
notes: scFv
B18: Polypeptide No. 68 (scFv, V domains shown)
VH: QVQLVQSGAEVKKPGASVKVSCKASGYTFSSYDINWVRQAPGQGLEWVGWINPRNGGTDYAQKFQGRVTMTRDTSTSTVYMELSSLRSEDTAVYYCARHRWELDSFDYWGQGTLVTVSS
VL: B11 VL with Q24R, D28S, A51T, Y91G, N92Y, S93N, Y94I, L96F
notes: scFv
B19: Polypeptide No. 59 (scFv, V domains shown)
VH: EVQLLESGGGLVQPGGSLRLSCAASGFTFSNAWMSWVRQAPGKGLEWVADISYDGTNDYYADSVKGRFTISRDNSKNTLYLQMNSLRAEDTAVYYCTTEELRFGGFDYWGQGTLVTVSS
VL: B6 VL with H27Q, W32Y, A34N, D92N, G100Q
notes: scFv

Numbering of substitutions follows the chain as printed.
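Further: Bio-layer interferometry with scFvs captured on biosensors via anti-V5 antibody, exposed 2 min to CLL-1 K244 or Q244 protein, 5 min dissociation, scored as binding, no binding or ambiguous.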

The target of one assay is T1, huCLL1-Q244-Avi-Tev-His. Nature of the assay: BLI. For orientation: Biolayer interferometry detects binding as a change in optical thickness at a sensor tip.
Procedure: (§1) Discovered scFvs were analyzed for binding to huCD33-R69-His or huCD33-G69-Fc recombinant proteins (for anti-CD33 scFvs; for CLL-1 scFvs, huCLL1-K244-Avi-Tev-His or huCLL1-Q244-Avi-Tev-His were used; for FLT3, huFLT3-T227-His or huFLT3-M227-Fc were used) using BLI on a ForteBio Octet HTX instrument. Streptavidin-coated biosensors were loaded with biotinylated anti-V5 tag monoclonal antibody for 5 min and were then quenched and blocked with 20 μM amine-PEG2-Biotin for 5 min. scFvs were captured on biosensors from scFv clone periplasmic extracts. huCD33 (or huCLL-1, or huFLT3) proteins were then associated with the captured scFvs for 2 minutes, followed by dissociation with buffer (1×HBST [10 mM HEPES pH 7.4, 150 mM NaCl, 0.05% Tween-20], 1 g/L BSA) for 5 minutes. […] Data was fitted with 1:1 Langmuir equation and off-rate values were reported.
(§2) Analogous methods were used to assess selectivity of binding of polypeptides to CLL-1 K244 or CLL-1 Q244.
In the case of B1, the binding result was “no binding”.
On the same count and under the same terms, with B2 the entry was “binds”; with B3, “no binding”; with B4, “no binding”.
On to B5, for which the binding result is given as “no binding”.
B6: the binding result is “no binding”.
As to B7, the binding result was “no binding”.
On to B8, for which the binding result is on record as “no binding”.
B9: the binding result was “binds”.
On the same count and under the same terms, the value for B10 was “binds”.
On the same count and under the same terms, with B11 the entry was “no binding”.
B12: the binding result is recorded as “binds”.
On the same count and under the same terms, the value for B13 was “no binding”; that for B14 was “no binding”; that for B15 was “no binding”.
Same read-out and setting: the value for B16 was “binds”; that for B17 was “binds”.
With B18, the binding result was “binds”.
Same read-out and setting: the value for B19 was “no binding”.

For a further assay, the target named is T2, huCLL1-K244-Avi-Tev-His. The assay is described as follows: BLI.
Procedure: as §1, §2
Take B1: the binding result is reported as “binds”.
On the same count and under the same terms, the value for B2 was “no binding”; that for B3 was “binds”.
On to B4, for which the binding result is reported as “binds”.
Take B5: the binding result is reported as “binds”.
Same read-out and setting: with B6 the entry was “binds”.
For B7, the binding result is “binds”.
As to B8, the binding result is reported as “binds”.
Still for that read-out and setting: with B9 the entry was “no binding”.
Regarding B10, the binding result was “no binding”.
Still for that read-out and setting: with B11 the entry was “binds”.
B12: the binding result is “no binding”.
For the molecule B13, the binding result was “binds”.
With B14, the binding result is recorded as “binds”.
Still for that read-out and setting: with B15 the entry was “binds”; with B16, “no binding”; with B17, “no binding”.
As to B18, the binding result is reported as “no binding”.
On the same count and under the same terms, the value for B19 was “binds”.

Source of the values: patent US20240101668A1 (WUGEN, published 2024).
